Measurements as given in patent US20210340209A1 (IMMUNE TARGETING, published 2021).

Molecular target: T1, human IL-2 mutant V1 (human, UniProt P60568 21-153)
T1 construct: Mutein found by yeast surface display screen; the ELISA format (any tag or Fc) is not described; also called IL-2 mutein
T1 chain: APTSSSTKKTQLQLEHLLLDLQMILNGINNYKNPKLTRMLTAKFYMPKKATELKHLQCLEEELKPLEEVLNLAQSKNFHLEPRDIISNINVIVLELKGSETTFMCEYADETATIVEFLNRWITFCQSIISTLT
Assay: ELISA

fold stronger binding than to IL-2 WT: ~20 times
B1: human IL-2R beta (receptor)
chain: AVNGTSQFTCFYNSRANISCVWSQDGALQDTSCQVHAWPDRRRWNQTCELLPVSQASWACNLILGAPDSQKLTTVDIVTLRVLCREGVRWRVMAIQDFKPFENLRLMAPISLQVVHVETHRCNISWEISQASHYFERHLEFEARTLSPGHTWEEAPLLTLKQKQEWICLETLTPDTQYEFQVRVKPLQGEFTTWSPWSQPLAFRTKPAALGKDT
notes: Soluble IL-2R beta reagent, titrated on yeast and used in ELISA; also called IL-2 receptor beta
